Ends that are not written are not given here.
What was measured:
[1] = target: T1, human PTHRs (Homo sapiens, UniProt Q03431); design: host or cells: LLC-PK1, COS-7 or HEK 293 cells; conditions: human PTHRs in LLC-PK1, COS-7 or HEK 293 cells; cited from earlier work
T1 sequence (Q03431 27-593): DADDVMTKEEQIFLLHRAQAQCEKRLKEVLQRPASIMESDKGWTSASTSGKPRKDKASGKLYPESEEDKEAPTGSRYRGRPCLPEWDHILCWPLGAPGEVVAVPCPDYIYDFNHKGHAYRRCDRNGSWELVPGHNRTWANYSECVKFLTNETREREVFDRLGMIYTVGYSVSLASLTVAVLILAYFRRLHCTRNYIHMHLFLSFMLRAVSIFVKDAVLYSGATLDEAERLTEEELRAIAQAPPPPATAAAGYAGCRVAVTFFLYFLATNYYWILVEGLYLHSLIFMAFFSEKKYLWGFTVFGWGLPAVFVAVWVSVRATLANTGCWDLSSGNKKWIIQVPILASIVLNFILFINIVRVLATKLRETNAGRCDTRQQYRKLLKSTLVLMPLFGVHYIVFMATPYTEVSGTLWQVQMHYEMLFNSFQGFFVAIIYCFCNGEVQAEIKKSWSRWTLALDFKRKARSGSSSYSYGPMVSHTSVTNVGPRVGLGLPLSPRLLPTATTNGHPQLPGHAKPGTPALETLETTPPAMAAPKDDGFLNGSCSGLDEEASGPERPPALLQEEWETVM

[2] = target: T1, human PTHRs; design: host or cells: LLC-PK1, COS-7 or HEK 293 cells; conditions: human PTHRs in LLC-PK1, COS-7 or HEK 293 cells; cited from earlier work; remark: listed apart in the source
[3] = target: T2, rat PTHRs (Rattus norvegicus, UniProt P25961); assay: PLC activation in COS-7 cells expressing rat PTHRs; assay type: cell-based; conditions: up to 1000 nM
T2 construct: expressed in transfected cells; host or cells: COS-7 cells
T2 sequence (P25961 27-591): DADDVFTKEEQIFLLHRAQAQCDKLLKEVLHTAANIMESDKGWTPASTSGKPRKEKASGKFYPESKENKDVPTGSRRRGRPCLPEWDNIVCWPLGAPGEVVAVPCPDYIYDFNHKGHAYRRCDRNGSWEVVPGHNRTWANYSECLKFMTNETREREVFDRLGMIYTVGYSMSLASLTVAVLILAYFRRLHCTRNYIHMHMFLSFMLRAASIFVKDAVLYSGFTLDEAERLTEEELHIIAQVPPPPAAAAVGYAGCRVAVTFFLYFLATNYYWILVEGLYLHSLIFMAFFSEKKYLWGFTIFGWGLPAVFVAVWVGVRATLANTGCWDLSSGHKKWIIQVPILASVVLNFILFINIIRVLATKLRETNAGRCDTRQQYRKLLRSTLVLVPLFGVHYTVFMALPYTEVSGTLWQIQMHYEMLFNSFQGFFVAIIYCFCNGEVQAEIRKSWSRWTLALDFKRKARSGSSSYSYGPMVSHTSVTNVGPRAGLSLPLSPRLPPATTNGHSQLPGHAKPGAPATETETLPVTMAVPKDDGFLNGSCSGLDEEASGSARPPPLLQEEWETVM
Protocol: (§1) All cells were maintained under 5% CO2 in air in Dulbecco's modified […] containing 7% fetal bovine serum (FBS) and 1% penicillin/streptomycin (GIBCO-BRL, Grand Island, N.Y.). Cells were seeded into 24-well plates two days before assay at a suitable cell density (approximately 2-2.5×10^5 cells/well). DNA transfections in COS/HEK cells were performed 24 hr after plating and inositol radiolabel was added 24 hr thereafter (see below). Cell transfections were performed as previously described (Gardella, T. J., et al., Endocrinology 132(5):2024-2030 (1993)).
(§2) PLC was activated by PTH agonists in the presence of 30 mM LiCl at 37° C. for 30 min after 16 hr of labeling with [^3H]myo-inositol (3uCi/ml) in serum-free medium containing 0.1% bovine serum albumin. The reactions were stopped by rapid aspiration and addition of cold 5% TCA. Water-soluble radiolabeled inositol trisphosphate (IP3) was isolated after ether extraction by ion-exchange chromatography (Guo, J., et al., Endocrinology 136(9):3884-3891 (1995)). In experiments involving HEK 293 cells, cells previously transfected with human PTHR cDNA (in the pcDNA1 expression vector HKRK) using Lipofectamine (Gibco BRL) were labeled with [^3H]myo-inositol and assayed as described above, except that total water-soluble [^3H]inositol polyphosphates were collected as a single fraction from the ion-exchange columns.

[4] = target: T1, human PTHRs; assay: PLC activation in COS-7 cells expressing human PTHRs; assay type: cell-based; conditions: up to 1000 nM
Protocol: as §1, §2

[5] = target: T3, hPTH-1 receptors (Homo sapiens, UniProt Q03431); assay: phospholipase C (PLC) activity in HKRK-B7 cells; assay type: cell-based; design: expressed in transfected cells; conditions: about 1 million hPTH-1 receptors per cell, 1000 nM (FIG. 4)
T3 sequence (Q03431 27-593): T1 sequence (Q03431 27-593)
Text: The following cell lines were used in these studies. HKRK C53 subclones of LLC-PKI porcine renal epithelial cells which stably express human PTH-1 receptors (150,000 receptors/cell). SaOS-2 cells are transformed human osteosarcoma cells which express relatively few (10,000-20,000 per cell) human PTH-1 receptors. HPR2-7 cells are subclones of LLC-PK1 which express approximately 250,000 recombinant human PTH-2 receptors per cell. HKRK-B7 cells are subclones of LLC-PK which stably express approximately 1 million hPTH-1 receptors per cell. HPR2-22 cells are subclones of LLC-PK1 which express 1.5 million recombinant hPTH-2 receptors per cell. The HPR2-27 and HPR2-22 cell lines were created in the same fashion as the HKRK cells but employing instead type 2 PTH receptor cDNA using the transfection technique of (Bringhurst, F. R., et al., Endocrinology 132(5):2090-2098 (1993); Guo, J., et al., Endocrinology 136(9):3884-3891 (1995)).
as §2

Substance: hPTH-(1-31): C-truncated human PTH peptide, residues 1-31
- potency in activating AC compared with hPTH-(1-34) [1]: as potent as hPTH-(1-34)
- potency in activating PLC compared with hPTH-(1-34) [2]: as potent as hPTH-(1-34)

Substance: hPTH-(3-34): N-truncated human PTH peptide, residues 3-34 (SEIQLMHNLGKHLNSMERVEWLRKKLQDVHNF-NH2; UniProt P01270 34-65, looked up, fragment)
- activation of PLC [3]: did not activate PLC
- activation of PLC [4]: did not activate PLC
- activation of PLC [5]: did not activate PLC
